Results taken from patent publication US20100311820, “NUCLEIC ACID MODULATORS OF GLYCOPROTEIN VI” (Regado Biosciences, Inc, published 2010).

T1: Glycoprotein VI extracellular domain (Gln21-Lys267) (Homo sapiens, UniProt Q9HCN6 SEQ:1-247)
T1 chain: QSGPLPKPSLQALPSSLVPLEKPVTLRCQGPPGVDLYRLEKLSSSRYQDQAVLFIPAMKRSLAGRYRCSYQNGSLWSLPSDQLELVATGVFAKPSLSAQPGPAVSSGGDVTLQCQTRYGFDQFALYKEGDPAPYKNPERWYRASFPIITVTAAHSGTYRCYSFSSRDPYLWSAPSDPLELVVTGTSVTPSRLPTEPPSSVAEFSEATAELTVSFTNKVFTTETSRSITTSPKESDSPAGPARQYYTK


What was measured:
[1] = target: T1, Glycoprotein VI extracellular domain …; experiment: filter; details: tags: C-terminal His6; R&D Systems 3627-GP; label: 5'-32P
Method: Enrichment of the ligand libraries for GPVI was monitored in direct binding studies utilizing radiolabeled ligand RNA from respective rounds of SELEX and soluble GPVI. Binding studies were performed with trace P³² end-labeled RNA added to serial dilutions of GPVI in Binding Buffer F. To prepare radiolabeled RNAs for binding studies, one hundred picomoles of RNA was dephosphorylated with Bacterial Alkaline Phopshatase at 50° C. for 1 hour. The reaction was phenol:chloroform:isoamyl alcohol (25:24:1) extracted, chloroform: isoamyl:alcohol (24:1) extracted, and ethanol precipitated. Three pmoles of dephosphorylated RNA was end labeled with T4 Poylnucleotide Kinase with supplied buffer, and 20 μCi of γ-P³²-ATP and subsequently cleaned with a Biorad MicroBio Spin P-30 spin column. End-labeled RNA was diluted to a final concentration of 2000 cpm/μL and heat denatured at 65° C. for 5 minutes. RNA and GPVI dilutions were equilibrated at 37° C. prior to use. RNA (5 μL) was added to varying concentrations of GPVI (15 μL) at 37° C. and incubated together for 5 to 15 minutes. The complexed RNA/GPVI protein mixture was then loaded over a Protean BA85 nitrocellulose membrane, overlayed on a Genescreen Plus Nylon membrane, in a 96 well vacuum manifold system with washing. The membranes were exposed to a phosphorimager screen, scanned, and quantitated with a Molecular Dynamics Storm 840 Phosphorimager. The fraction bound was calculated by dividing the counts on the nitrocellulose by the total counts and adjusting for the background. Results for binding of enriched ligand libraries from round 10 E2 and round 10 EF of the SELEX as compared to the GPVI-naïve starting ligand library are shown in FIG. 3.

[2] = target: T1, Glycoprotein VI extracellular domain …; experiment: competition; competition with radiolabeled parent; details: tags: C-terminal His6; R&D Systems 3627-GP
[3] = target: T1, Glycoprotein VI extracellular domain …; experiment: filter; buffer F, 37 C; details: tags: C-terminal His6; R&D Systems 3627-GP; label: 5'-32P
[4] = target: T1, Glycoprotein VI extracellular domain …; experiment: competition; 5' linker ligands assayed by competition; details: tags: C-terminal His6; R&D Systems 3627-GP

Row | Binder | Kd [1] | other results
1 | GGGAGGACGGCGCUAACGCCUGGCAUAAGCCUCCC (ssRNA, RB448 with 2'-OMe throughout Stem 1) [RB453] | < 10 nM | 
2 | GGGAGGACGGCGCUAACGCCUGGCAUAAGCCUCCC (ssRNA, RB448 with 2'-OMe G23,C30) [RB462] | < 10 nM | 
3 | GGAGGACGGCGCGCCUGGCAUAAGCCUCC (ssRNA, RB551 with PS G5-A6) [RB552] | 15.5 nM | 
4 | GGAGGACGGCGCGCCUGGCAUAAGCCUCC (ssRNA, RB566 with 2'-OMe G1 and 5' hexylamino linker) [RB567] |  | Kd [2]: < 10 nM
5 | GGGAGGACGUGCGGAUCACACCGCGCUUGCGUAAGCCUCCC (ssRNA, 2'-F C and U; 2'-OH A and G) [EF-3 T3 (RB445)] | > 40 nM | 
6 | GGAGGACGGCGCGCCUGGCAUAAGCCUCC (ssRNA, RB540 with PS G8-G9) [RB549] |  | Kd [3]: ~6.48 nM
7 | GGAGGACGGCGCGCCUGGCAUAAGCCUCC (ssRNA, RB542 with 5' branched 40 kDa PEG) [RB570] |  | Kd [2]: 15.5 nM
8 | GGAGGACGGCGCGCCUGGCAUAAGCCUCC (ssRNA, RB551 with PS A6-C7) [RB553] | 15.5 nM | 
9 | GGAGGACGGCGCGCCUGGCAUAAGCCUCC (ssRNA, RB537 with 2'-OMe G17) [RB538] | 15.5 nM | 
10 | GGAGGACGGCGCGCCUGGCAUAAGCCUCC (ssRNA, RB540 with PS A6-C7) [RB547] | 15.5 nM | 
11 | GGGAGGACGGCGCGCCUGGCAUAAGCCUCCC (ssRNA, RB490 with 5' hexylamino linker) [RB508] |  | Kd [4]: < 10 nM
12 | GGGAGGACGACGCGUCUGGCAUAAGCCUCCC (ssRNA, RB526 pattern with 2'-OH A10 and 2'-F U15) [RB535] | 15.5 nM | 
13 | GGGAGGACGGCGCGCCUGGCAUAAGCCUCCC (ssRNA, RB526 with 2'-OMe G18) [RB531] | 15.5 nM | 
14 | GGGAGGACGGCGCGCCUGGCAUAAGCCUCCC (ssRNA, RB524 with 2'-OMe A7, 2'-deoxy G9) [RB528] | > 40 nM | 
15 | GGGAGGACGGCGCGCCUGGCAUAAGCCUCCC (ssRNA, RB490 with 2'-OMe G6,A7,C8) [RB517] | > 40 nM | 
16 | GGGAGGACGGCGCGCCUGGCGUAAGCCUCCC (ssRNA, RB531 pattern with 2'-OMe G21) [RB532] | 15.5 nM | 
17 | GGGAGGACGGCGCGCCUUGCAUAAGCCUCCC (ssRNA, RB526 pattern with 2'-F U18) [RB533] | 15.5 nM | 
18 | GGGAGGACGGCGCGCCUGGCAUAAGCCUCCC (ssRNA, RB524 with 2'-OMe A7,G9) [RB527] | > 40 nM | 
19 | GGGAGGACGGCGCGCCUUGCGUAAGCCUCCC (ssRNA, RB526 pattern with 2'-F U18 and 2'-OMe G21) [RB534] | 15.5 nM | 
20 | GGGAGGACGGCGCGCCUGGCAUAAGCCUCCC (ssRNA, RB520 with 2'-OMe A7,G9) [RB523] | > 40 nM | 
21 | GGGAGGACGGCGCGCCUGGCAUAAGCCUCCC (ssRNA, RB490 with 2'-OMe G6,C15,A21,A23,A24,G25) [RB520] |  | Kd [3]: ~6 nM
